Patent US20220144916A1 (University of Texas, published 2022)

How the values were obtained:
[1] = target: T1, HCMV viral Fcγ receptor gp34 (residues 24-182), soluble, strep and FLAG tags (human cytomegalovirus AD169, UniProt P16809 24-182); assay: flow cytometry, yeast display of human IgG1 Fc, Gp34 plus anti-FLAG PE
T1 construct: range 24-182
T1 sequence: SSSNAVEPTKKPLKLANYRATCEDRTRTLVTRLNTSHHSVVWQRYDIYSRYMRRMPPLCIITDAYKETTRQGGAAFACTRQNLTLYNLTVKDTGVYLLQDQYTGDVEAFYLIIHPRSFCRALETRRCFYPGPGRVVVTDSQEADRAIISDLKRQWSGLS

[2] = target: T2, human FcγRIIIA, FLAG-tagged (human, UniProt P08637 17-208); assay: flow cytometry, yeast display of human IgG1 Fc, FcgR3A labeled with PE
T2 construct: also called FcgRIIIa; FcγIIIA

[3] = target: human FcRn, FLAG-tagged (human, UniProt P55899 24-297; P61769 21-119); assay: flow cytometry, yeast display of human IgG1 Fc, FcRn at low pH, PE detection
human FcRn, FLAG-tagged, sequence (P55899 24-297 limits assumed, chain 1 of 2): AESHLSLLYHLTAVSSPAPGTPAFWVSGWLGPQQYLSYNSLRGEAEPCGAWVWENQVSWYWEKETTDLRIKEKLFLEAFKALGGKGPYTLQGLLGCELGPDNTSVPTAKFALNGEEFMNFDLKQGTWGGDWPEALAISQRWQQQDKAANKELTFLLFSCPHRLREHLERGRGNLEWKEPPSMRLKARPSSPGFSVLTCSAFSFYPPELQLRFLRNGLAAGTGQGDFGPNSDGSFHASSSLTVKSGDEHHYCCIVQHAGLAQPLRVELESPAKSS
human FcRn, FLAG-tagged, sequence (P61769 21-119 limits assumed, chain 2 of 2): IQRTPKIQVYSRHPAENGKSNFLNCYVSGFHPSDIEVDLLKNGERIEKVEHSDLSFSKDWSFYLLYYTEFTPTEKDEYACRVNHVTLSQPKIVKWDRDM

T2 sequence (P08637 17-208 limits assumed): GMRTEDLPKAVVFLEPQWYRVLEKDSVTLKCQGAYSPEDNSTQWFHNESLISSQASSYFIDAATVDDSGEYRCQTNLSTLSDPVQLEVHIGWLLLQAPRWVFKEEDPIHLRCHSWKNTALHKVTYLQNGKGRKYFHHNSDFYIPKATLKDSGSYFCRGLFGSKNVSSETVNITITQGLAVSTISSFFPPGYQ

B1: 3S-12 (other)
human IgG1 Fc displayed on yeast as an Aga-2 fusion protein: CDKTHTCPPCPAPELLGGPSVFLFPPKPKDTLMISRTPEVTCVVVDVSHEDPEVKFNWYVDGVEVHNAKTKPREEQYNSTYRVVSVLTVLHQDWLNGKEYKCKVSNKALPAPIEKTIFKAKGQPRKPQVYILPPSRDELTKNQVSLTCLVKGFYPSDIAVEWESNGQPENNYKTTPPVLDSDGSFFLYSKLTVDKSRWQQGNVFSCSVMHEALHNHYTQKSLSLSPGK
notes: member of group m65; also called gp34 escape variant 3S-12 of human IgG1 Fc, S337F, E345K, T350I
binding result [1]: no binding | number printed in the receptor-PE gate (share of yeast cells; unit not given) [2]: 39.9

B2: 4-7 (other)
human IgG1 Fc displayed on yeast as an Aga-2 fusion protein: CDKTHTCPPCPAPELLGGPSVFLFPPKPKDTLMISRTPEVTCVVVDVSLEDPEVKFNWYVDGVEVHNAKTKPREKQYNSTYRVVSVLTVLHLDWLNGKEYKCKVSNKALPAPIEETISKAKGQPREPQVYTLPPSRDELTKNQVSLTCLVKGFYPSDIAVEWESNGQPENNYKTTPPVLDSDGSFFLYSKLTVDKSRWQQGNVFSCSVMHEALHNHYTQKSLSLSPGK
notes: also called gp34 escape variant 4-7 of human IgG1 Fc, H268L, E294K, Q311L, K334E
number printed in the receptor-PE gate (share of yeast cells; unit not given) [3]: 34.3 | binding result [1]: no binding | number printed in the receptor-PE gate (share of yeast cells; unit not given) [2]: 54.2

B3: 3S-13 (other)
human IgG1 Fc displayed on yeast as an Aga-2 fusion protein: CDKTHTCPPCPAPELLGGPSVFLFPPKPKDTLMISRTPEVTCVVVDVSHEDPEVKFNWYVDGVEVHNAKTKPREEQYNSTYRVVSVLTVLHQDWLNGKEYKCKVSNKALPAPIEETISIAKGQPREPQVYTLPP
notes: member of group m65; also called gp34 escape variant 3S-13 of human IgG1 Fc, K334E, K338I
binding result [1]: no binding | number printed in the receptor-PE gate (share of yeast cells; unit not given) [2]: 43.4
